From the supplement of paper PMC10065799, “High-throughput profiling of sequence recognition by tyrosine kinases and SH2 domains using bacterial peptide display” (eLife, 2023)

Each sequence was assayed on c-Src (assay: phosphorylation enrichment, bacterial display (enrichment ratio); higher = better substrate or ligand; peptides without Tyr show the background).
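Throughout, for SH2 binding enrichment of the phosphorylated peptide, bacterial display: peptide library displayed on the E. coli surface as eCPX fusions, selected cells deep-sequenced, score is each peptide's frequency after selection divided by its frequency in the input.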
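Throughout, for phosphorylation enrichment, bacterial display: 11-residue human phosphosite peptides and single-mutation variants displayed on the E. coli surface, counted by deep sequencing, each peptide's frequency after selection divided by its frequency in the unselected input library; frequency after pTyr selection over input frequency; kinase dosed for 20-30% of maximal phosphorylation in three min.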

| Sequence | phosphorylation enrichment |
| --- | --- |
| KKCTRYIDCAL [ASPA_Y64_D68A] | 0.371 |
| ESMQSYDLDFP [UNC13B_Y243_D238E_YF] | 0.49 |
| DSFSSYCNAVA [SLC20A2_Y436_YF] | 0.579 |
| FTAVGYHKHIT [NOMO1_Y1137] | 0.312 |
| RFLERYIFNRE [HLA-DPB1_Y57_YF] | 0.432 |
| VEYAKYGSLRG [RET_Y809] | 1.56 |
| SRVNKYSTAFG [GJB3_Y16_G12R] | 0.383 |
| HKDNNYVSMWF [PAPOLG_Y432] | 0.666 |
| VCRHNYGVVES [HLA-DRB1_Y112_Y107V] | 0.361 |
| FLTSSYINIST [IL23R_Y178_YF] | 0.44 |
| HNLDFYKMTTN [FGFR3_Y648_K650M_YF] | 0.364 |
| RDVEQYVNNVN [PCDH19_Y1097_L1094V] | 0.398 |
| RLDRSYSFSFS [PEAR1_Y890_YF] | 0.575 |
| ETESPYQELQG [TYROBP_Y91] | 1.52 |
| SGGGSYGSGGG [KRT1_Y539] | 0.271 |
| QMVRMYASSFM [AVPR2_Y124_G122R_YF] | 0.328 |
| TKQLTYEEQYL [PIK3C3_Y310_D314Y] | 0.732 |

| Sequence | phosphorylation enrichment |
| --- | --- |
| QAKRKYQEVSK [FES_Y156_A159V] | 0.193 |
| GKTQQYDCKWF [BCR_Y751_YF] | 0.43 |
| HVPEEYKPKQG [SAXO2_Y37] | 0.685 |
| IATTIYSGDKI [UGGT2_Y823_A821T] | 0.748 |
| LLSVAYKNVVR [YWHAZ_Y48_G53R] | 0.743 |
| GREAEYSDKHG [EPHB4_Y574] | 0.405 |
| VAMDDYLKNVM [LRRK2_Y707] | 0.409 |
| LVSCTYQLARR [FGFR2_Y608_G613R] | 0.438 |
| MPPHICAITDT [MYH9_Y151_Y151C] | 0.529 |
| NLMPAYFKCIQ [CYP21A2_Y190_YF] | 0.526 |
| FGSLLYKYAFK [FANCD2_Y458] | 0.392 |
| IYETDYYQKGG [INSR_Y1189_R1191Q] | 1.37 |
| DENWFYTRAAS [RPS19_Y54] | 0.418 |
| LKVKAYRFSIS [LCT_Y974] | 0.463 |
| LWQSIYNLDAE [TNNT2_Y251_E254D] | 6.55 |
| GGTPLYMDRQG [AGXT_Y194] | 0.505 |

What follows are sequences tested against Grb2 SH2 (UniProt P62993) (assay: SH2 binding enrichment of the phosphorylated peptide, bacterial display (enrichment ratio); higher = better substrate or ligand; peptides without Tyr show the background).
Sequence of Grb2 SH2 (P62993 whole entry, looked up): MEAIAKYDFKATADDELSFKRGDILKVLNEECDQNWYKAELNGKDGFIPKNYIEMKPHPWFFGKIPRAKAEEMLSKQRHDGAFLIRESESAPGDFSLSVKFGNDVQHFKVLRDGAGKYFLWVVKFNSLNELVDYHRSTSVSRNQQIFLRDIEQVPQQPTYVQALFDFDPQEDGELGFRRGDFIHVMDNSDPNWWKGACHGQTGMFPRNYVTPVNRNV

| Sequence | SH2 binding enrichment |
| --- | --- |
| KKCTRYIDCAL [ASPA_Y64_D68A] | 0.836 |
| ESMQSYDLDFP [UNC13B_Y243_D238E_YF] | 0.824 |
| DSFSSYCNAVA [SLC20A2_Y436_YF] | 2 |
| FTAVGYHKHIT [NOMO1_Y1137] | 1.02 |
| RFLERYIFNRE [HLA-DPB1_Y57_YF] | 1.54 |
| VEYAKYGSLRG [RET_Y809] | 0.461 |
| SRVNKYSTAFG [GJB3_Y16_G12R] | 1.02 |
| HKDNNYVSMWF [PAPOLG_Y432] | 1.02 |
| VCRHNYGVVES [HLA-DRB1_Y112_Y107V] | 0.828 |
| FLTSSYINIST [IL23R_Y178_YF] | 22.6 |
| HNLDFYKMTTN [FGFR3_Y648_K650M_YF] | 0.62 |
| RDVEQYVNNVN [PCDH19_Y1097_L1094V] | 2.37 |
| RLDRSYSFSFS [PEAR1_Y890_YF] | 0.75 |
| ETESPYQELQG [TYROBP_Y91] | 0.635 |
| SGGGSYGSGGG [KRT1_Y539] | 0.526 |
| QMVRMYASSFM [AVPR2_Y124_G122R_YF] | 0.831 |
| TKQLTYEEQYL [PIK3C3_Y310_D314Y] | 0.894 |

| Sequence | SH2 binding enrichment |
| --- | --- |
| QAKRKYQEVSK [FES_Y156_A159V] | 0.957 |
| GKTQQYDCKWF [BCR_Y751_YF] | 0.826 |
| HVPEEYKPKQG [SAXO2_Y37] | 0.956 |
| IATTIYSGDKI [UGGT2_Y823_A821T] | 0.893 |
| LLSVAYKNVVR [YWHAZ_Y48_G53R] | 0.827 |
| GREAEYSDKHG [EPHB4_Y574] | 0.809 |
| VAMDDYLKNVM [LRRK2_Y707] | 1.01 |
| LVSCTYQLARR [FGFR2_Y608_G613R] | 0.851 |
| MPPHICAITDT [MYH9_Y151_Y151C] | 1.1 |
| NLMPAYFKCIQ [CYP21A2_Y190_YF] | 0.904 |
| FGSLLYKYAFK [FANCD2_Y458] | 0.922 |
| IYETDYYQKGG [INSR_Y1189_R1191Q] | 0.915 |
| DENWFYTRAAS [RPS19_Y54] | 0.821 |
| LKVKAYRFSIS [LCT_Y974] | 1.25 |
| LWQSIYNLDAE [TNNT2_Y251_E254D] | 0.771 |
| GGTPLYMDRQG [AGXT_Y194] | 0.76 |

Each sequence was assayed against SHP2-C SH2 in the same assay as above.

| Sequence | SH2 binding enrichment |
| --- | --- |
| KKCTRYIDCAL [ASPA_Y64_D68A] | 0.806 |
| ESMQSYDLDFP [UNC13B_Y243_D238E_YF] | 0.534 |
| DSFSSYCNAVA [SLC20A2_Y436_YF] | 1.18 |
| FTAVGYHKHIT [NOMO1_Y1137] | 1.62 |
| RFLERYIFNRE [HLA-DPB1_Y57_YF] | 1.09 |
| VEYAKYGSLRG [RET_Y809] | 2.61 |
| SRVNKYSTAFG [GJB3_Y16_G12R] | 1.3 |
| HKDNNYVSMWF [PAPOLG_Y432] | 0.817 |
| VCRHNYGVVES [HLA-DRB1_Y112_Y107V] | 0.801 |
| FLTSSYINIST [IL23R_Y178_YF] | 1.33 |
| HNLDFYKMTTN [FGFR3_Y648_K650M_YF] | 0.981 |
| RDVEQYVNNVN [PCDH19_Y1097_L1094V] | 0.541 |
| RLDRSYSFSFS [PEAR1_Y890_YF] | 0.677 |
| ETESPYQELQG [TYROBP_Y91] | 0.543 |
| SGGGSYGSGGG [KRT1_Y539] | 0.608 |
| QMVRMYASSFM [AVPR2_Y124_G122R_YF] | 0.774 |
| TKQLTYEEQYL [PIK3C3_Y310_D314Y] | 0.747 |

| Sequence | SH2 binding enrichment |
| --- | --- |
| QAKRKYQEVSK [FES_Y156_A159V] | 0.448 |
| GKTQQYDCKWF [BCR_Y751_YF] | 0.624 |
| HVPEEYKPKQG [SAXO2_Y37] | 0.674 |
| IATTIYSGDKI [UGGT2_Y823_A821T] | 0.695 |
| LLSVAYKNVVR [YWHAZ_Y48_G53R] | 0.566 |
| GREAEYSDKHG [EPHB4_Y574] | 0.618 |
| VAMDDYLKNVM [LRRK2_Y707] | 0.648 |
| LVSCTYQLARR [FGFR2_Y608_G613R] | 0.484 |
| MPPHICAITDT [MYH9_Y151_Y151C] | 0.706 |
| NLMPAYFKCIQ [CYP21A2_Y190_YF] | 0.639 |
| FGSLLYKYAFK [FANCD2_Y458] | 0.731 |
| IYETDYYQKGG [INSR_Y1189_R1191Q] | 0.442 |
| DENWFYTRAAS [RPS19_Y54] | 0.816 |
| LKVKAYRFSIS [LCT_Y974] | 0.641 |
| LWQSIYNLDAE [TNNT2_Y251_E254D] | 0.639 |
| GGTPLYMDRQG [AGXT_Y194] | 0.685 |

The sequences below were run against c-Src SH2 in the same assay as above.

| Sequence | SH2 binding enrichment |
| --- | --- |
| KKCTRYIDCAL [ASPA_Y64_D68A] | 0.709 |
| ESMQSYDLDFP [UNC13B_Y243_D238E_YF] | 0.648 |
| DSFSSYCNAVA [SLC20A2_Y436_YF] | 1.13 |
| FTAVGYHKHIT [NOMO1_Y1137] | 0.849 |
| RFLERYIFNRE [HLA-DPB1_Y57_YF] | 1.46 |
| VEYAKYGSLRG [RET_Y809] | 0.583 |
| SRVNKYSTAFG [GJB3_Y16_G12R] | 0.896 |
| HKDNNYVSMWF [PAPOLG_Y432] | 0.557 |
| VCRHNYGVVES [HLA-DRB1_Y112_Y107V] | 1.13 |
| FLTSSYINIST [IL23R_Y178_YF] | 2.66 |
| HNLDFYKMTTN [FGFR3_Y648_K650M_YF] | 0.474 |
| RDVEQYVNNVN [PCDH19_Y1097_L1094V] | 0.621 |
| RLDRSYSFSFS [PEAR1_Y890_YF] | 0.544 |
| ETESPYQELQG [TYROBP_Y91] | 0.61 |
| SGGGSYGSGGG [KRT1_Y539] | 0.444 |
| QMVRMYASSFM [AVPR2_Y124_G122R_YF] | 0.571 |
| TKQLTYEEQYL [PIK3C3_Y310_D314Y] | 0.538 |

| Sequence | SH2 binding enrichment |
| --- | --- |
| QAKRKYQEVSK [FES_Y156_A159V] | 0.616 |
| GKTQQYDCKWF [BCR_Y751_YF] | 0.466 |
| HVPEEYKPKQG [SAXO2_Y37] | 0.512 |
| IATTIYSGDKI [UGGT2_Y823_A821T] | 0.516 |
| LLSVAYKNVVR [YWHAZ_Y48_G53R] | 0.475 |
| GREAEYSDKHG [EPHB4_Y574] | 0.402 |
| VAMDDYLKNVM [LRRK2_Y707] | 0.418 |
| LVSCTYQLARR [FGFR2_Y608_G613R] | 0.401 |
| MPPHICAITDT [MYH9_Y151_Y151C] | 0.657 |
| NLMPAYFKCIQ [CYP21A2_Y190_YF] | 0.494 |
| FGSLLYKYAFK [FANCD2_Y458] | 0.485 |
| IYETDYYQKGG [INSR_Y1189_R1191Q] | 0.773 |
| DENWFYTRAAS [RPS19_Y54] | 0.661 |
| LKVKAYRFSIS [LCT_Y974] | 0.713 |
| LWQSIYNLDAE [TNNT2_Y251_E254D] | 0.456 |
| GGTPLYMDRQG [AGXT_Y194] | 0.448 |
